The values below come from publication PMC10003650, “Characterization of a New Glucose-Tolerant GH1 β-Glycosidase from Aspergillus fumigatus with Transglycosylation Activity” (International Journal of Molecular Sciences, 2023).

Substrate in series [1]: O=[N+]([O-])c1ccc(O[C@@H]2O[C@H](CO)[C@@H](O)[C@H](O)[C@H]2O)cc1
Kind of series: purified protein. The format is biochemical, Aspergillus fumigatus. The conditions noted are these: 50 mM sodium phosphate pH 6.0, 40 °C, 30 min.

Substrate in series [2]: OCc1ccccc1O[C@@H]1O[C@H](CO)[C@@H](O)[C@H](O)[C@H]1O
Kind of series: DNS method for released glucose, non-linear regression. The series is classed as biochemical, Aspergillus fumigatus. The conditions noted are these: 50 mM sodium phosphate pH 6.0, 40 °C, 30 min. The text has this:
DNS method for released glucose, non-linear regression on AfBgl1.3

B1: AfBgl1.3 (Aspergillus fumigatus Af293) (protein)
chain: MGSTTTSTLPPDFLWGFATASYQIEGAVDEDGRGPSIWDTFCKIPGKIAGGASGEVACDSYHRTHEDIALLKECGAKAYRFSISWSRVIPLGGRNDPVNEKGLQHYVKFVDDLLAAGITPLVTLFHWDLPDALDKRYGGLLNKEEFVADFANYARVMFNAFGSKVKYWITFNEPWCSSVLGYNVGQFAPGRTSDRTKSPVGDGSREPWIVGHNILVAHGAAVKIYREEFKPRDGGEIGITLNGDWAEPWDPENPADVEACDRKIEFAISWFADPIYHGKYPDSMVKQLGDRLPTWTPEDIALVHGSNDFYGMNHYCANYIKAKTGEPDPNDVAGNLEILLQNKNGEWIGPETQSPWLRPHPIGFRKLLKWLSDRYNQPKIYVTENGTSLKGESDLPVDQIVNDDFRVQYFREYIAAMADAYTLDGVNVRAYMAWSLMDNFEWAEGYETRFGVTFVDYANNQRRIPKKSAKVLREIFDQYIEKA
On to B1, for which, in series [1], the Km (usually the substrate concentration at which the rate is half of its maximum) stood at 7.6 ± 0.8 mM; the Vmax – broadly, the rate approached at saturating substrate – is 656 µmol/min/mg; the kcat – broadly, the number of substrate molecules converted per active site and unit of time at saturation – turned out to be 596 s⁻¹; the kcat/Km (commonly the second-order rate constant that governs catalysis at low substrate concentration) amounted to 78000 M⁻¹ s⁻¹. Also, in series [2], the Km amounted to 17.6 ± 1.9 mM, the Vmax came out at 706 µmol/min/mg, the kcat was 622 s⁻¹ and the kcat/Km was 35000 M⁻¹ s⁻¹.
